This passage reports Kd results from paper PMC4231766.

As a reminder, the Kd is the equilibrium constant for the complex coming apart. Low values mean higher affinity, high ones lower affinity.

In this data set the test system is 340R WT (MBP fusion) (Invertebrate iridescent virus 6 (IIV-6)). The data set can be described thus: EMSA. Conditions: EMSA 1 h at room temperature, 5 ng long dsRNA or 1 nM siRNA/19-nt dsRNA; 6% or 12% native PAGE; binding buffer not given (as ref 11); protein dialysis/storage …. A general note: Mobility shift assays separate free from complexed probe on a gel.

Regarding 21-nt siRNA duplex, the Kd amounted to 718 nM.
As for 126-nt long dsRNA, the figure is 139 nM.
Substance 19-nt blunt dsRNA registered a Kd of 1170 nM.
